Four molecules from US7737158B2, “Processes for regulating blood glucose in a mammal” (Washington University, priority 2005, dated 2010) can be followed below.

In the series the target is mouse Nampt (Mus musculus, UniProt Q99KQ4). Description: Enzyme-coupled fluorometric assay of immunoprecipitated Nampt-FLAG and recombinant Nampt. The class given is biochemical. More on the design: expressed in transfected cells; host or cells: mouse NIH3T3 fibroblasts and mouse HIB-1B preadipocytes (differentiated), stably transfected with pCXN2-Nampt-FLAG; cell extracts or culture supernatant, anti-FLAG immunoprecipitates. The conditions noted are these: for kcat: NMN synthesis, 55 min at 37° C., pH8.5, Nampt amount quantified by Western blotting. The procedure:
For immunoprecipitation of intracellular Nampt, whole cell extracts were prepared with ice-cold immunoprecipitation (IP) buffer (phosphate buffer saline [pH 7.4], 0.5% NP-40, 1 mM EDTA,1 mM NaF, 10 μM Trichostatin A, 10 mM nicotinamide, 0.5 mM DTT, protease inhibitor cocktail (Roche)) and mixed with agarose beads conjugated with the mouse monoclonal M2 anti-FLAG antibody (F2426, Sigma) for 3-4 hours at 4° C. For immunoprecipitation of extracellular Nampt, HIB-1B culture supernatants were collected after incubating differentiated HIB-1B cells overnight with DMEM without fetal bovine serum but supplemented with 1 μg/ml insulin and 1 nM triodothyronine, filtered through a 0.22-μm PES membrane, concentrated with Amicon Ultra-15 columns (Millipore, MA), and mixed with anti-FLAG beads for 3-4 hours at 4° C. Immunoprecipitates were washed twice with the IP buffer and twice with PBS.
Immunoprecipitates on anti-FLAG beads were incubated in enzymatic reaction buffer (50 mM Tris-HCl (pH8.5), 100 mM NaCl, 0.25 mM Nicotinamide, 10 mM MgSO4, 1.5% Ethanol, 0.5 mM PRPP, 2.0 mM ATP) for 55 min at 37° C. After this reaction, mouse recombinant nicotinamide mononucleotide adenylyltransferase and yeast alcohol dehydrogenase (Sigma) were added at 10 μg/ml as the final concentration for each, and the mixture was incubated for 5 min at 37° C. Supernatants were then collected by spinning down anti-FLAG beads, and autofluorescence of NADH was measured in a Perkin Elmer LS 50B fluorometer (excitation: 340 nm; emission: 460 nm). Immunoprecipitates bound on anti-FLAG beads were extracted with Laemmli's sample buffer, boiled for 5 minutes, and analyzed by Western blotting with anti-Nampt antibodies. The amounts of Nampt used for enzymatic reactions were quantitated compared to the standards of mouse recombinant Nampt.
The immunoprecipitates from the HIB-1B culture supernatants were subjected to enzyme-coupled fluorometric assays (see Revollo et al., J. Biol. Chem., (2004)279, 50754-50763) to compare enzymatic activity of the intracellular and extracellular forms of Nampt. […] The Nampt enzymatic activity of the bacterially produced recombinant Nampt and the intracellular Nampt-FLAG® immunoprecipitated from HIB-1B and NIH3T3 cellular extracts were also measured and their kcat values calculated (see FIG. 16E). […] It is believed that a post-translational modification may be responsible for the altered enzymatic activity of extracellular Nampt produced by brown adipocytes. […] Despite the extensive mass spectrometric analysis of extracellular Nampt, the precise nature of the modification is currently unknown. Taken together, these findings provide strong evidence that Nampt functions as an NAD biosynthetic enzyme both intra- and extracellularly.
Background: In western blotting, separated proteins are transferred to a membrane and probed.

“Also recorded” adds a separate entry of the source.

B1: extracellular Nampt-FLAG®: C-terminally FLAG-tagged mouse Nampt (SEQ ID NO:7) secreted from differentiated HIB-1B cells, immunoprecipitated from culture supernatants (protein)
chain: MNAAAEAEFNILLATDSYKVTHYKQYPPNTSKVYSYFECREKKTENSKVRKVKYEETVFYGLQYILNKYLKGKVVTKEKIQEAKEVYREHFQDDVFNERGWNYILEKYDGHLPIEVKAVPEGSVIPRGNVLFTVENTDPECYWLTNWIETILVQSWYPITVATNSREQKKILAKYLLETSGNLDGLEYKLHDFGYRGVSSQETAGIGASAHLVNFKGTDTVAGIALIKKYYGTKDPVPGYSVPAAEHSTITAWGKDHEKDAFEHIVTQFSSVPVSVVSDSYDIYNACEKIWGEDLRHLIVSRSTEAPLIIRPDSGNPLDTVLKVLDILGKKFPVTENSKGYKLLPPYLRVIQGDGVDINTLQEIVEGMKQKKWSIENVSFGSGGALLQKLTRDLLNCSFKCSYVVTNGLGVNVFKDPVADPNKRSKKGRLSLHRTPAGNFVTLEEGKGDLEEYGHDLLHTVFKNGKVTKSYSFDEVRKNAQLNIEQDVAPHGGDYKDDDDK
modifications: C-terminal FLAG tag; Nampt-FLAG (tm) protein
As usually defined, the kcat is the maximal rate divided by the concentration of active sites. B1: the turnover number (kcat) worked out at 0.380 s⁻¹. Besides, the Nampt enzymatic activity result (immunoprecipitated from culture supernatants of differentiated HIB-1B cells) is “Robust activity; also recorded: has Nampt enzymatic activity”. For the setting “versus bacterially produced recombinant Nampt”, the “kcat of extracellular Nampt-FLAG, fold higher than recombinant Nampt” value is on record as approximately 11 fold. Further, the “kcat of extracellular Nampt-FLAG, fold higher than intracellular Nampt-FLAG from NIH3T3 cells” value (versus intracellular Nampt-FLAG from NIH3T3 cells) is listed as approximately 5 fold. The “kcat of extracellular Nampt-FLAG, fold higher than intracellular Nampt-FLAG from differentiated HIB-1B cells” value (versus intracellular Nampt-FLAG from differentiated HIB-1B cells) was approximately 2 fold.

B2: intracellular Nampt-FLAG® from NIH3T3 cells: FLAG-tagged mouse Nampt immunoprecipitated from NIH3T3 cellular extracts (protein, UniProt Q99KQ4 1-491, looked up)
Nicotinamide …: MNAAAEAEFNILLATDSYKVTHYKQYPPNTSKVYSYFECREKKTENSKVRKVKYEETVFYGLQYILNKYLKGKVVTKEKIQEAKEVYREHFQDDVFNERGWNYILEKYDGHLPIEVKAVPEGSVIPRGNVLFTVENTDPECYWLTNWIETILVQSWYPITVATNSREQKKILAKYLLETSGNLDGLEYKLHDFGYRGVSSQETAGIGASAHLVNFKGTDTVAGIALIKKYYGTKDPVPGYSVPAAEHSTITAWGKDHEKDAFEHIVTQFSSVPVSVVSDSYDIYNACEKIWGEDLRHLIVSRSTEAPLIIRPDSGNPLDTVLKVLDILGKKFPVTENSKGYKLLPPYLRVIQGDGVDINTLQEIVEGMKQKKWSIENVSFGSGGALLQKLTRDLLNCSFKCSYVVTNGLGVNVFKDPVADPNKRSKKGRLSLHRTPAGNFVTLEEGKGDLEEYGHDLLHTVFKNGKVTKSYSFDEVRKNAQLNIEQDVAPH
modifications: FLAG tag
notes: FLAG-tagged mouse Nampt immunoprecipitated from NIH3T3 cellular extracts
Consider B2, for which the kcat worked out at 0.082 s⁻¹.

B3: extracellular Nampt: Extracellular Nampt from HIB-1B culture supernatants (protein)
chain: B2 Nicotinamide …
B3: the “enzymatic activity after treatment with calf intestinal phosphatase (CIP)” value (extracellular Nampt from HIB-1B culture supernatants) is given as “did not change”.

B4: intracellular Nampt-FLAG® from differentiated HIB-1B cells: FLAG-tagged mouse Nampt immunoprecipitated from differentiated HIB-1B cellular extracts (protein, UniProt Q99KQ4 1-491, looked up)
Nicotinamide …: B2 Nicotinamide …
modifications: FLAG tag
notes: FLAG-tagged mouse Nampt immunoprecipitated from differentiated HIB-1B cellular extracts
Consider B4, for which the kcat was 0.182 s⁻¹.
